Molecular target: RSV protein F (recombinant or purified F protein) (human respiratory syncytial virus, strain not stated)
Experiment: SPR Biacore 3000, Fab over amine-coupled recombinant protein F

Fab fragment derived from commercially available Palivizumab (Synagis)
Kd: 3.78 nM
koff: 0.000757 s⁻¹
kon: 200000 M⁻¹ s⁻¹
t1/2: 15 min

Source: patent US20080226630A1
